For 2 molecules, IC50 and Kd results are on record in patent US6025158A, “Nucleic acids encoding humanized anti-IL-8 monoclonal antibodies” (Genentech, Inc., dated 2000).

One assay relates to human monomeric IL-8. As to the kind of experiment: human monomeric IL-8 mediated neutrophil chemotaxis. Type of assay: cell-based. How it is done:
Human neutrophils were isolated, counted and resuspended at 5×10^6 cells/ml in Hank's balanced salt solution (abbreviated HBSS; without calcium and magnesium) with 0.1% bovine serum albumin. The neutrophils were labeled by adding calcein AM (Molecular Probe, Eugene, Oreg.) at a final concentration of 2.0 μM. Following a 30 minute incubation at 37° C., cells were washed twice with HBSS-BSA and resuspended at 5×10^6 cells/ml.
Chemotaxis experiments were carried out in a Neuro Probe (Cabin John, Md.) 96-well chamber, model MBB96. Experimental samples (buffer only control, IL-8 alone or IL-8+Fabs) were loaded in a Polyfiltronics 96-well View plate (Neuro Probe Inc.) placed in the lower chamber. […]
The relative number of neutrophils migrating through the filter (Neutrophil migration index) was determined by measuring fluorescence intensity of the filter and the fluorescence intensity of the contents of the lower chamber and adding the two values together. Fluorescence intensity was measured with a CytoFluor 2300 fluorescent plate reader (Millipore Corp. Bedford, Mass.) configured to read a Corning 96-well plate using the 485-20 nm excitation filter and a 530-25 emission filter, with the sensitivity set at 3.

A further assay concerns the target IL-8 (Homo sapiens, UniProt P10145). Nature of the assay: KinEXA equilibrium and kinetic measurements. Type of assay: binding. The settings on record: read-out: equilibrium constant (Kd). The method, then:
The beads were resuspended in assay buffer (0.1% bovine serum albumin in PBS) to a final volume of 30 ml.
The equilibrium constant (Kd) was calculated using the software provided by Sapidyne Instruments Inc.

Sequence of IL-8 (P10145 28-99 limits assumed): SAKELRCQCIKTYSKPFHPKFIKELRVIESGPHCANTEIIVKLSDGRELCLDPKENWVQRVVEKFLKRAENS

B1: F(ab)-9: humanized variant, F(ab)-6 with GluH6Gln (protein)
light: DIQMTQSPSSLSASVGDRVTITCRSSQSLVHGIGNTYLHWYQQKPGKAPKLLIYKVSNRFSGVPSRFSGSGSGTDFTLTISSLQPEDFATYYCSQSTHVPLTFGQGTKVEIKRTVAAPSVFIFPPSDEQLKSGTASVVCLLNNFYPREAKVQWKVDNALQSGNSQESVTEQDSKDSTYSLSSTLTLSKADYEKHKVYACEVTHQGLSSPVTKSFNRGEC
heavy: EVQLVQSGGGLVQPGGSLRLSCAASGYSFSSHYMHWVRQAPGKGLEWVGYIDPSNGETTYNQKFKGRFTLSRDNSKNTAYLQMNSLRAEDTAVYYCARGDYRYNGDWFFDVWGQGTLVTVSSASTKGPSVFPLAPSSKSTSGGTAALGCLVKDYFPEPVTVSWNSGALTSGVHTFPAVLQSSGLYSLSSVVTVPSSSLGTQTYICNVNHKPSNTKVDKKVEPKSCDKTHT
In the assay on human monomeric IL-8, B1 had an IC50 of approximately 15 nM.

B2: 6G4V11N35E IgG1: full length IgG1 version of humanized anti-IL8 variant 6G4V11N35E (protein)
light: DIQMTQSPSSLSASVGDRVTITCRSSQSLVHGIGETYLHWYQQKPGKAPKLLIYKVSNRFSGVPSRFSGSGSGTDFTLTISSLQPEDFATYYCSQSTHVPLTFGQGTKVEIKRTVAAPSVFIFPPSDEQLKSGTASVVCLLNNFYPREAKVQWKVDNALQSGNSQESVTEQDSKDSTYSLSSTLTLSKADYEKHKVYACEVTHQGLSSPVTKSFNRGEC
heavy: EVQLVQSGGGLVQPGGSLRLSCAASGYSFSSHYMHWVRQAPGKGLEWVGYIDPSNGETTYNQKFKGRFTLSRDNSKNTAYLQMNSLRAEDTAVYYCARGDYRYNGDWFFDVWGQGTLVTVSSASTKGPSVFPLAPSSKSTSGGTAALGCLVKDYFPEPVTVSWNSGALTSGVHTFPAVLQSSGLYSLSSVVTVPSSSLGTQTYICNVNHKPSNTKVDKKVEPKSCDKTHT
As to B2, in the assay with IL-8, the Kd is approximately 0.049 nM.
